Test results from patent US8148141B2, “Peptide-immobilized substrate and method for measuring target protein” (HiPep Laboratories, priority 2001, dated 2012).
Ends that are not written are not given here. Rf = not defined here

Experiments:
calmodulin = calmodulin (Homo sapiens, UniProt P0DP23); assay: calmodulin measurement with immobilized fluorescent-labeled α-helix peptide chip; format: binding; conditions: carboxyfluorescein peptide; exciting 490 nm, detection 520 nm; in the presence of calmodulin; 25° C., 5 minutes
Experimental: As schematically shown in FIG. 3, calmodulin was measured using a peptide chip in which peptides having α-helix structure, each of which both termini were labeled with different fluorescent labels, were immobilized on a substrate. The procedures were carried out as follows:
The sequence of the core region of the peptides, which forms α-helix structure was designed by molecular modeling using a computer (molecular modeling using Insight II/Discover, Molecular Simulation, U.S.) based on the amino acid sequence of the peptide described in a reference (K. T. O'Neil and W. F. DeGrado, Trend Biochem Sci, 15, 59-64 (1990)). As a result, the amino acid sequence Leu-Lys-Lys-Leu-Leu-Lys-Leu-Leu-Lys-Lys-Leu-Leu-Lys-Leu (SEQ ID NO:1) was employed as the amino acid sequence of the core region. […]

amylase = amylase measurement with immobilized fluorescent-labeled β-loop peptide chip; format: binding; conditions: carboxyfluorescein group; exciting 490 nm, detection 520 nm; amylase 1.0 μM, Tris buffer pH7.4, 150 mM NaCl; 25° C., 5 minutes
Experimental: As schematically shown in FIG. 4, amylase was measured using a peptide chip in which a peptide whose one terminus was labeled with a fluorescent label, which peptide has β-loop structure, was immobilized on a substrate. The procedures were carried out as follows:
As in Example 1, as schematically shown in FIG. 4, a peptide which forms β-loop structure was designed by molecular modeling using a computer based on the amino acid sequence of the peptide described in a reference (F. J. Blanco et al., Eur J Biochem 200, 345-351 (1991), S. Ono et al, Biosci Biotechnol Biochem, 62, 1621-1623 (1998)). As a result, as the amino acid sequence of the core region, the sequence Tyr-Gln-Ser-Trp-Arg-Tyr-Ser-Gln-Ala (SEQ ID NO: 5) was employed. The peptide having this sequence to which Cys residue as an anchor for immobilization was added to one terminus, and to which Lys residue having a fluorescent group Rf (fluorescent group such as carboxyfluorescein in FIG. 4) was added to another terminus, was synthesized. […] When carboxyfluorescein group was used, fluorescence measurement was performed employing exciting wavelength of 490 nm and detection wavelength of 520 nm. By adding an amylase solution (Tris buffer pH7.4, 150 mM NaCl, amylase concentration: 1.0 μM), about ten times increase of the fluorescence intensity was measured, so that the amylase was able to be detected and quantified. […]

| increase of the fluorescence intensity (calmodulin) | increase of the fluorescence intensity (amylase) | Substance |
| --- | --- | --- |
| about ten |  | Lys(Rf3)-Leu-Lys-Lys-Leu-Leu-Lys-Leu-Leu-Lys-Lys-Leu-Leu-Lys-Leu-Cys-NH2 (K(carboxyfluorescein)LKKLLKLLKKLLKLC-NH2) [peptide containing carboxylfluorescein, Rf3 carboxyfluorescein group] |
|  | about ten | Lys(Rf)-Tyr-Gln-Ser-Trp-Arg-Tyr-Ser-Gln-Ala-Cys-NH2 (K(Rf)YQSWRYSQAC-NH2; reading uncertain; also: printed as Lys(Rf)-Tyr-Gln-Ser-Trp-Arg-Tyr-Ser-Gln-Ala-Cys-NH2) [SEQ ID NO: 6, Rf fluorescent group such as carboxyfluorescein] |
